Earlier results on one substance are cited in publication PMC7563123.

The target in series [1] is Aβ1–40 Aβ1-40 (Homo sapiens) (UniProt P05067). Kind of series: ligand binding assay.
Series [2] has as its target Aβ1–42 Aβ1-42 (Homo sapiens) (UniProt P05067). Kind of series: ligand binding assay.

17β-HSD10, sequence (Q99714 2-261): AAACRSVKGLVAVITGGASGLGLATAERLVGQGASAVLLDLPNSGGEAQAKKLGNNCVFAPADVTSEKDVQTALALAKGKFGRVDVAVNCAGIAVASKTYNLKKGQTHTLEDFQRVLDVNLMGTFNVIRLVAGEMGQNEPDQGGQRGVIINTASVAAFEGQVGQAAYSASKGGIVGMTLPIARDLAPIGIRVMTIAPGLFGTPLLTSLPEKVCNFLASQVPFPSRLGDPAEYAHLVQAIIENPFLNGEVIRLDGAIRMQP
Aβ1–42 Aβ1-42 (Homo sapiens), sequence (P05067 1-42): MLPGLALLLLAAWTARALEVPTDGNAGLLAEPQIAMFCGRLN
Aβ1–40 Aβ1-40 (Homo sapiens), sequence (P05067 1-40): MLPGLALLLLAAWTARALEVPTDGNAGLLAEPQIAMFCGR

Turning to 17β-HSD10 (from UniProt Q99714), the Kd (as a rule, the constant that tells how readily two partners part at equilibrium) in series [1] was 38.4 nM; in series [2], 55.8 nM.
